From publication PMC4824100 come the findings set out here.

Series [1] has as its target T1, FKBP25 (FKBP3) wild type (Homo sapiens, UniProt Q00688 1-224).
T1 sequence: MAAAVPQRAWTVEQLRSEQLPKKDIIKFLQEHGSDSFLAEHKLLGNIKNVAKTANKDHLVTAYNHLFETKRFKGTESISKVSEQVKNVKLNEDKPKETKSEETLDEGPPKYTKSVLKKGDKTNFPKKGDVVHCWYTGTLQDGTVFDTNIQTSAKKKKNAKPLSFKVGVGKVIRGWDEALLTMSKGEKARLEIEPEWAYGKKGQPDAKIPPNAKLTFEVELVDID
Briefly: NMR PRE.

For series [2], the target named is YY1-DBD (UniProt P25490 286-414). Kind of series: ITC. For orientation: In ITC the heat of successive injections is recorded.
Chain of YY1-DBD (P25490 286-414): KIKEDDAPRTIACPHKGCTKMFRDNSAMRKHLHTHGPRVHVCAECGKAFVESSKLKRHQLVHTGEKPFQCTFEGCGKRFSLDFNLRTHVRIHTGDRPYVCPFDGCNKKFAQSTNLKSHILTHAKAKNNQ

B1: DNA-1 (dT-EDTA at position 5) (dsDNA)
DNA 1: AGGGTCTCCATTTTGAAGCATGC
DNA 2: GCATGCTTCAAAATGGAGACCCT
modifications: dT-EDTA at T5 of strand 1 (Mn2+ or Ca2+ chelated)
Turning to B1, the binding result in series [1] was “binds”.

B2: DNAYY1 23-bp (dsDNA)
DNA 1: AGGGTCTCCATTTTGAAGCATGC
DNA 2: GCATGCTTCAAAATGGAGACCCT
Usually Kd stands for the concentration at which binding is half-saturated. Lower therefore signals tighter binding. Turning to B2, the affinity in series [2], expressed as Kd, was 390 ± 600 nM.

B3: DNA-2 (dT-EDTA at position 27) (dsDNA)
DNA 1: AGGGTCTCCATTTTGAAGCATGC
DNA 2: GCATGCTTCAAAATGGAGACCCT
modifications: dT-EDTA at residue 27 (T4 of strand 2; numbering 24-46 on antisense)
Take B3: in series [1], the binding result is given as “binds”.
